This note sets out measurements from US20180256731A1, “NOVEL INSULIN ANALOG AND USE THEREOF” (HANMI PHARM. CO., LTD, priority 2013, published 2018).

Experiment [1] concerns the target Insulin receptor. Description: SPR (BIACORE 3000), receptor on CM5 chip; Test 4. (In general: SPR reads the build-up and loss of mass on a sensor chip optically.)
Experiment [2] deals with Insulin receptor. Description: SPR (BIACORE 3000), receptor on CM5 chip; Test 2.
In experiment [3] the target is Insulin receptor. The experiment can be described thus: SPR (BIACORE 3000), receptor on CM5 chip; Test 1.
Experiment [4] concerns the target Insulin receptor. The experiment can be described thus: SPR (BIACORE 3000), receptor on CM5 chip; Test 5.
The target of experiment [5] is Insulin receptor. Description: SPR (BIACORE 3000), receptor on CM5 chip; Test 3.

Native human insulin (ligand): the koff (usually the rate constant with which the complex falls apart) in the experiment with Insulin receptor [1] was found to be 0.0124 s⁻¹; with Insulin receptor [2] it was 0.0101 s⁻¹; with Insulin receptor [3], 0.00747 s⁻¹; with Insulin receptor [4] it was 0.0097 s⁻¹; with Insulin receptor [5] it was 0.0107 s⁻¹. Further, the association rate constant (kon) (as a rule, the second-order rate constant of association) in the experiment with Insulin receptor [1] was determined as 290000 M⁻¹ s⁻¹; in the experiment with Insulin receptor [2], 229000 M⁻¹ s⁻¹; in the experiment with Insulin receptor [3], 221000 M⁻¹ s⁻¹; with Insulin receptor [4], 200000 M⁻¹ s⁻¹; with Insulin receptor [5] it was 176000 M⁻¹ s⁻¹. Moreover, the equilibrium dissociation constant (Kd) – broadly, the constant that tells how readily two partners part at equilibrium – with Insulin receptor [5] was found to be 63.5 nM.
